Measured values: patent US20210155910, “IMPROVED REVERSE TRANSCRIPTASE AND METHODS OF USE” (YALE UNIVERSITY, published 2021)

Molecular target: T1, E.r. maturase (MarathonRT) WT (Eubacterium rectale)
T1 chain: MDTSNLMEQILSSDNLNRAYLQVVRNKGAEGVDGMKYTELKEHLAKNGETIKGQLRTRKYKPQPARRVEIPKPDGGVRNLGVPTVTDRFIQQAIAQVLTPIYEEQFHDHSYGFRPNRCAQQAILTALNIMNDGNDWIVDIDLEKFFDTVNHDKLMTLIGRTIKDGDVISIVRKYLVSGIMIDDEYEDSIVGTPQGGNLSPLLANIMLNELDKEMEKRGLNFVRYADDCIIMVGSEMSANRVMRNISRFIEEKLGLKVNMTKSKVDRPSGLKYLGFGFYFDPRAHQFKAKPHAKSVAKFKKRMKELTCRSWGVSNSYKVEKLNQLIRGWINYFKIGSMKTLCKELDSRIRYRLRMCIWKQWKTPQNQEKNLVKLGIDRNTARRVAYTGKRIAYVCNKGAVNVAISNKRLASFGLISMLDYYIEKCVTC
Assay: indirect: D4A at 16:1 raises primer incorporation on RepA D3 from 84.1% to 93.0%; Tris pH 8.3, 200 mM KCl, 2 mM MgCl2, 0.6 M trehalose
Details: tags: N-terminal 6xHis-SUMO, cleaved; hairpin
Text: The surface of E.r. maturase is enriched with positively charged amino acids, to which primers used for reverse transcription non-specifically binds, and thus the efficiency of primer utilization is compromised. To reduce the non-specific binding, D4A helix (FIG. 12A, originated from E.r. Group II intron) was used in the reaction buffer to block the positively charged residues on the surface of E.r. maturase, attempting to further improve the performance of E.r. maturase in the already optimized buffer (50 mM Tris pH 8.3, 200 mM KCl, 2 mM MgCl₂, 5 mM DTT and 0.6 M trehalose).

B1: D4A helix of E.r. group II intron (ssRNA)
RNA: GUCUCGUAUUGCAGAAAUGACAACAUCUGCCGUAACCAAUCGGGUAAAAGGUGGUCAAAUCAAGCGAGAC
**Q.** Does B1 bind?
**A.** binds
